From article PMC8043444 (bioRxiv, 2021) come the findings set out here.

The Kd is the free concentration of one partner at which half of the binding sites on the other are occupied at equilibrium, for simple one-to-one binding. Higher therefore signals weaker binding.

Test [1] deals with T1, SARS-CoV-2 RBD WT for SPR binding assays (SARS-CoV-2, UniProt P0DTC2). The test can be described thus: SPR. For orientation: SPR reads the build-up and loss of mass on a sensor chip optically.
The target in test [2] is T1, SARS-CoV-2 RBD WT for SPR binding assays. The test can be described thus: cell-based or functional assay.
Test [3] addresses SARS-CoV-2 RBD WT for crystallization (SARS-CoV-2, UniProt P0DTC2, deglycosylated by overnight incubation with EndoH glycosidase). The experiment in a line: crystal structure.

B1: S2D106 IgG1 (LS) (antibody, V domains shown)
VH: EVQLVQSGAEVKKPGSSVKVSCKASGGPFSSSAISWVRQAPGQGLEWMGGIIPMVGTANYAQKFQGRVTITADESTSTAYMELSSLRSEDTAVYYCARDSRYCSGGSCYSVWFDPWGQGTLVTVSS
VL: not shown
B1: in test [1], the Kd is 0.04 nM. Moreover, the “neutralisation of authentic SARS-CoV-2-Nluc on Vero E6 cells (IF/luc), IC90” value (“neutralisation” below) in test [2] turned out to be 23.6.

B2: S2D106 Fab (Fab, V domains shown)
VH: EVQLVQSGAEVKKPGSSVKVSCKASGGPFSSSAISWVRQAPGQGLEWMGGIIPMVGTANYAQKFQGRVTITADESTSTAYMELSSLRSEDTAVYYCARDSRYCSGGSCYSVWFDPWGQGTLVTVSS
VL: not shown
Molecule B2 registered a Kd in test [1] of 0.05 nM. This counts as picomolar.

B3: S2X35 IgG1 (LS) (antibody, V domains shown)
VH: QVQLVQSGAEVKKPGASVKVSCKASGYTFTNYGISWVRQAPGQGLEWMGWISAYKGNTNYAQKLQGRVTMTTDTSTSTAYMELRSLRSDDTAVYYCARPDYQVLGYDFWIGYYGMDVWGQGTTVIVSS
VL: QSVLTQPPSVSGAPGQRVTISCTGSSSNIGAGYDVHWYQQLPGTAPKLLIYGNTNRPSGVPDRFSGSKSGTSASLAITGLQAEDEADYYCQSYDSSLSGSEVVFGGGTKLTVL
Turning to B3, the Kd in test [1] was determined as 0.06 nM. The “neutralisation” value in test [2] came to 592.

B4: S2X259 Fab (Fab, V domains shown)
VH: QVQLVQSGAEVKKPGSSVKVSCKASGGIFNTYTISWVRQAPGQGLEWMGRIILMSGMANYAQKIQGRVTITADKSTSTAYMELTSLRSDDTAVYYCARGFNGNYYGWGDDDAFDIWGQGTLVTVYS
VL: QTVLTQPPSVSGAPGQRVTISCTGSNSNIGAGYDVHWYQQLPGTAPKLLICGNSNRPSGVPDRFSGSKSGTSASLAITGLQAEDEADYYCQSYDSSLSGPNWVFGGGTKLTVL
Consider B4, for which the binding result in test [3] is reported as “binds”.

B5: S304 IgG1 (LS) (antibody, V domains shown)
VH: EVQLVESGGGLVQPGGSLRLSCAASGFTFSSYDMHWVRQTTGKGLEWVSTIGTAGDTYYPDSVKGRFTISREDAKNSLYLQMNSLRAGDTAVYYCARGDSSGYYYYFDYWGQGTLLTVSS
VL: DIEMTQSPSSLSAAVGDRVTITCRASQSIGSYLNWYQQKPGKAPKLLIYAASSLQSGVPSRFSGSGSGTDFTLTISSLQPEDFAIYYCQQSYVSPTYTFGPGTKVDIK
Molecule B5 displayed a Kd in test [1] of 0.4 nM.

B6: S2H97 IgG1 (LS) (antibody, V domains shown)
VH: QVRLVQSGAEVKKSGESLKISCKGSGYSFTSYWIGWVRQMPGKGLEWMGIIYPGDSDTRYSPSFQGQVTISADKSISTVYLQWSSLKASDTAMYYCARQWSHYTYDYYYWGQGTLVTISS
VL: QSVLTQPASVSGSPGQSITISCTGISSDVGGYNSVSWYQQHPGKAPKLMIYDVTNRPSGVSNRFSGSKSGNTASLTISGLQAEDEADYYCSSYTSSSTPPYVFGTGTKVSVL
Regarding B6, the affinity in test [1], expressed as Kd, was 0.04 nM. In addition, the “neutralisation” value in test [2] amounted to 3290.

B7: S2H97 Fab (Fab, V domains shown)
VH: QVRLVQSGAEVKKSGESLKISCKGSGYSFTSYWIGWVRQMPGKGLEWMGIIYPGDSDTRYSPSFQGQVTISADKSISTVYLQWSSLKASDTAMYYCARQWSHYTYDYYYWGQGTLVTISS
VL: QSVLTQPASVSGSPGQSITISCTGISSDVGGYNSVSWYQQHPGKAPKLMIYDVTNRPSGVSNRFSGSKSGNTASLTISGLQAEDEADYYCSSYTSSSTPPYVFGTGTKVSVL
B7 showed a Kd in test [1] of 0.03 nM. This lies in the picomolar range.

B8: S2E12 IgG1 (LS) (antibody, V domains shown)
VH: not shown
VL: DIVLTQTPGTLSLSPGERATLSCRASQSVSSSYLAWYQQKPGQAPRLLIYGASSRATGIPDRFSGSGSGTDFTLTISRLEPEDFAVYYCQQYVGLTGWTFGQGTKVEIK
For the molecule B8, in test [1], the Kd is 0.7 nM. In addition, the “neutralisation” value in test [2] came to 14.
